In patent US20170114420, “[…] WITH BINDING AFFINITY TO NOROVIRUS” (North Carolina State University, published 2017):

How the values were obtained:
[1] = target: T1, Norovirus GII.2 (Snow Mountain virus) VLP, capsid protein VP1 (Snow Mountain virus (Norovirus GII.2), UniProt Q80RD6 Q80RD6:1-542); assay: ELONA; ELASA, RT, 3 ug/ml VLP; T/N 18.1 at 1 uM (Table 5); conditions: chain copies: 180, label: 5' biotin
[2] = target: Norovirus GI.1 (Norwalk) VLP, capsid protein VP1 (Norwalk virus (Norovirus GI.1), UniProt Q83884 Q83884:1-530); assay: ELONA; 1 uM aptamer, RT; <2 is negative; conditions: label: 5' biotin
[3] = target: T1, Norovirus GII.2 (Snow Mountain virus) …; assay: ELONA; ELASA, RT, 3 ug/ml VLP; T/N 12.9 at 1 uM (Table 5); conditions: chain copies: 180, label: 5' biotin
[4] = target: T1, Norovirus GII.2 (Snow Mountain virus) …; assay: ELONA; ELASA, RT, 3 ug/ml VLP; T/N 12.4 at 1 uM (Table 5); conditions: chain copies: 180, label: 5' biotin
[5] = target: T1, Norovirus GII.2 (Snow Mountain virus) …; assay: ELONA; ELASA, RT, 3 ug/ml VLP; T/N 4.1 at 1 uM (Table 5); conditions: chain copies: 180, label: 5' biotin
[6] = target: T1, Norovirus GII.2 (Snow Mountain virus) …; assay: ELONA; conditions: chain copies: 180

B1: SMV-21 (ssDNA)
DNA: AGTATACGTATTACCTGCAGCCCATGTTTTGTAGGTGTAATAGGTCATGTTAGGGTTTCTGCGATATCTCGGAGATCTTGC
- Kd [1]: ~101 nM

B2: SMV-19 (ssDNA)
DNA: AGTATACGTATTACCTGCAGCCACCAGTGTGTTGAGGTTTGAGCACACTGATAGAGTGTCACGATATCTCGGAGATCTTGC
- binding result [2]: binds
- Kd [3]: ~191 nM

B3: SMV-25 (ssDNA)
DNA: AGTATACGTATTACCTGCAGCCATCTGTGTGAAGACTATATGGCGCTCACATATTTCTTTCCGATATCTCGGAGATCTTGC
- Kd [4]: ~232 nM

B4: SMV-26 (ssDNA)
DNA: AGTATACGTATTACCTGCAGCTGACCGAGTGTCTGGTCATTTTCGATGTCTGTTGTTAGGCCGATATCTCGGAGATCTTGC
- Kd [5]: ~281 nM

B5: M1 (ssDNA)
DNA: AGTATACGTATTACCTGCAGCTGTTTATGGGGATAAACGTATCTAATTCGTGTACTAATCACGATATCTCGGAGATCTTGC
- binding signal [6]: 10.7 VLP/no VLP ratio

B6: M6-2 (ssDNA)
DNA: AGTATACGTATTACCTGCAGCTGGGAAGAGGTCCGGTAAATGCAGGGTCAGCCCGGAGAGCGATATCTCGGAGATCTTGC
- binding signal [6]: 12 VLP/no VLP ratio
